Data as given in patent US20150037339A1 (Regeneron, published 2015).
Values belong to the binder of their own block, whether it stands above or below them.

Legend:
Activin AB [1] = molecular target: T1, Activin AB (human, UniProt P08476 311-426; P09529 293-407); test: SPR (Biacore), mAb captured on anti-Fc, Activin AB injected, 25 C
T1 construct: Heterodimer of one betaA and one betaB subunit; bought (R&D Systems #1006-AB-005 / #1066-AB)
T1 chain 1: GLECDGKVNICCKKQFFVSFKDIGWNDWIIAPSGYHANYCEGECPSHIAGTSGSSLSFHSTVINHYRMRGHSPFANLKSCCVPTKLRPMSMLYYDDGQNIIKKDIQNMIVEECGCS
T1 chain 2: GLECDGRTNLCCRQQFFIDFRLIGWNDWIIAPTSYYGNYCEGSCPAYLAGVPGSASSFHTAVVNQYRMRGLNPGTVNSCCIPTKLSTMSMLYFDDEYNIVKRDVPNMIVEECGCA
In short: (§1)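 Reported half-lives follow ln2/(60*kd) in minutes, with KD taken as kd/ka. Both rest on fits to binding data from 240 s of association and 600 s of buffer dissociation.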

hBMP4 = molecular target: T2, hBMP4 (human, UniProt P12644 293-408); test: SPR (Biacore 4000), captured on anti-human Fc, 200 nM ligand injected, 37 C
T2 construct: Bought protein
T2 sequence (looked up): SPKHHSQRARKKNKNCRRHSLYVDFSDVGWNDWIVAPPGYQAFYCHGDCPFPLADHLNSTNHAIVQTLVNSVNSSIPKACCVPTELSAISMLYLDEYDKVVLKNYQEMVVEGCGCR
Protocol: (§2) For the binding experiment, a Biacore 4000 instrument was used. […] All Biacore binding studies were performed in HBS-T running buffer (0.01 M HEPES pH 7.4, 0.5 M NaCl, 3 mM EDTA, 0.5 mg/ml bovine serum albumin, 0.05% v/v Surfactant P20). […] All binding measurements were performed at 37° C. […] Over the captured antibody surface was injected the TGF-beta family ligands through concentrations ranging from 3.1 nM to 200 nM.

hBMP9 = molecular target: T3, hBMP9 (human, UniProt Q9UK05 320-429); test: as above
T3 construct: Bought protein
T3 sequence (looked up): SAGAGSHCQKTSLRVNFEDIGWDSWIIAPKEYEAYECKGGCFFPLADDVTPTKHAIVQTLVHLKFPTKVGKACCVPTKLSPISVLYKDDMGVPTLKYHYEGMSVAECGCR
Protocol: as §2

hBMP6 = molecular target: T4, hBMP6 (human, UniProt P22004 382-513, limits assumed); test: as above
T4 construct: Bought protein
T4 sequence (looked up): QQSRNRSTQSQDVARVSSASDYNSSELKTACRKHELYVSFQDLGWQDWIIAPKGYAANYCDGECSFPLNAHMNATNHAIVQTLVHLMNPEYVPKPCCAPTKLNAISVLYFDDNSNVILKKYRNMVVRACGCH
Protocol: as §2

hBMP2 = molecular target: T5, hBMP2 (human, UniProt P12643 283-396); test: as above
T5 construct: Bought protein; also called BPM2
T5 sequence (P12643 283-396 limits assumed): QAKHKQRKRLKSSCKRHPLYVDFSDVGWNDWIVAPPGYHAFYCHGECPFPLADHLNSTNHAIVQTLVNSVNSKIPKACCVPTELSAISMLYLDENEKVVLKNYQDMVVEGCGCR
Protocol: as §2

Activin AC [2] = molecular target: T6, Activin AC (human, UniProt P55103 237-352); test: as above
T6 construct: Heterodimer of one betaA and one betaC subunit; bought (R&D Systems #4879-AC)
T6 sequence 1: T1 chain 1
T6 sequence 2: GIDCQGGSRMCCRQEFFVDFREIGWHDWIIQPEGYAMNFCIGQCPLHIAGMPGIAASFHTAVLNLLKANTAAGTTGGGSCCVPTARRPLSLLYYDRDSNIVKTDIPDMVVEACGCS
Protocol: as §2

Activin AB [3] = molecular target: T1, Activin AB; test: as above
Protocol: as §2

GDF8 = molecular target: T7, GDF8 (human, UniProt O14793 267-375); test: as above
T7 construct: Bought (R&D Systems #788-G8); also called hGDF8; growth and differentiation factor-8
Protocol: as §2

Activin B [4] = molecular target: T8, Activin B (human, UniProt P09529 293-407); test: as above
T8 construct: Homodimer of two betaB subunits; bought (R&D Systems #659-AB)
T8 chain: T1 chain 2
Protocol: as §2

GDF11 = molecular target: T9, GDF11 (human, UniProt O95390 299-407); test: as above
T9 construct: Bought protein; also called hGDF11
T9 sequence (O95390 299-407 limits assumed): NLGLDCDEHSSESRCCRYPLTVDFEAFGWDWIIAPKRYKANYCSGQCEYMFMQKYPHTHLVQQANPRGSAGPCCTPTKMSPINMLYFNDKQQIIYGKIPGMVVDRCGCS
Protocol: as §2

Activin A [5] = molecular target: T10, Activin A (human, UniProt P08476 311-426); test: as above
T10 construct: Homodimer of two betaA subunits; bought (R&D Systems #338-AC); also called inhibin-betaA dimer
T10 sequence: T1 chain 1
Protocol: as §2

Activin AC [6] = molecular target: T6, Activin AC; test: cell-based or functional assay
Activin AB [7] = molecular target: T1, Activin AB; test: cell-based or functional assay
Activin B [8] = molecular target: T8, Activin B; test: cell-based or functional assay
Activin A [9] = molecular target: T10, Activin A; test: cell-based or functional assay
Activin AC [10] = molecular target: T6, Activin AC; test: SPR (Biacore), mAb captured on anti-Fc, Activin AC injected, 25 C
In short: as §1

Activin AB [11] = molecular target: T1, Activin AB; test: SPR (Biacore), mAb captured on anti-Fc, Activin AB injected, 37 C
In short: as §1

Activin AC [12] = molecular target: T6, Activin AC; test: SPR (Biacore), mAb captured on anti-Fc, Activin AC injected, 37 C
In short: as §1

Activin A [13] = molecular target: T11, Activin A (human, UniProt P08476 311-426); test: Octet cross-competition; binder on anti-hFc tip; 50 nM hActivin A pre-bound with 1 uM H4H10429P (col 6); black box
T11 construct: Homodimer of two βA subunits; bought from R&D Systems (#338-AC); also called inhibin-βA dimer; human Activin A
T11 sequence: T1 chain 1
Protocol: (§3) No. 8,309,082) and Control 3 (MAB3381, available from R&D Systems, Inc., Minneapolis, Minn.) were also included in the assays. All assays were performed at 25° C. with a microtiter plate shaking rate of 1000 rpm in Octet HBST buffer (0.01 M HEPES pH7.4, 0.15M NaCl, 3 mM EDTA, 0.05% v/v Surfactant P20, 0.1 mg/mL BSA) according to manufacturer's instructions (ForteBio Corp., Menlo Park, Calif.). […] Any remaining anti-hFc binding sites on the tips were blocked by incubating the tips in a 50 ug/mL solution of irrelevant antibody for 5 minutes.

Activin A [14] = molecular target: T11, Activin A; test: Octet cross-competition; binder on anti-hFc tip; 50 nM hActivin A pre-bound with 1 uM H4H10468P2 (col 2); white box
Protocol: as §3

Activin A [15] = molecular target: T11, Activin A; test: Octet cross-competition; binder on anti-hFc tip; 50 nM hActivin A pre-bound with 1 uM Control 3 (col 11); black box
Protocol: as §3

Activin A [16] = molecular target: T11, Activin A; test: SPR, captured mAb, 37C; no dissociation observed, kd fixed
Protocol: (§4) Antibody-antigen association was monitored for 240 seconds while dissociation in buffer was monitored for 600 seconds. Kinetic association and dissociation rate constants were determined by processing and fitting the data using Scrubber software version 2.0c. Binding equilibrium dissociation constants (KD) and dissociative half-lives (t_{1/2}) were then calculated from the kinetic rate constants as: KD (M)=kd/kₐ and t_{1/2} (min)=[ln 2/(60*kd)]. (NB=no binding observed under the conditions used; NT=not tested).

Activin A [17] = molecular target: T11, Activin A; test: Octet cross-competition; binder on anti-hFc tip; 50 nM hActivin A pre-bound with 1 uM H4H10446P2 (col 1); white box
Protocol: as §3

Activin A [18] = molecular target: T11, Activin A; test: Octet cross-competition; binder on anti-hFc tip; 50 nM hActivin A pre-bound with 1 uM Control 1 (col 10); black box
Protocol: as §3

Activin A [19] = molecular target: T11, Activin A; test: Octet cross-competition; binder on anti-hFc tip; 50 nM hActivin A pre-bound with 1 uM H4H10423P (col 4); white box
Protocol: as §3

Activin A [20] = molecular target: T11, Activin A; test: Octet cross-competition; binder on anti-hFc tip; 50 nM hActivin A mixed with 1 uM Isotype control 12 (-) (col 12); dark grey box
Protocol: as §3

Activin A [21] = molecular target: T11, Activin A; test: Octet cross-competition; binder on anti-hFc tip; 50 nM hActivin A pre-bound with 1 uM H4H10442P2 (col 3); white box
Protocol: as §3

Activin B [22] = molecular target: T12, Activin B (human, UniProt P09529 293-407); test: SPR, captured mAb, 37C
T12 construct: Homodimer of two βB subunits; R&D Systems #659-AB
T12 chain: T1 chain 2
Protocol: as §4

Activin A [23] = molecular target: T11, Activin A; test: SPR, captured mAb, 37C
Protocol: as §4

Activin A [24] = molecular target: T11, Activin A; test: Octet cross-competition; binder on anti-hFc tip; 50 nM hActivin A pre-bound with 1 uM H4H10430P (col 5); black box
Protocol: as §3

Activin A [25] = molecular target: T11, Activin A; test: Octet cross-competition; binder on anti-hFc tip; 50 nM hActivin A pre-bound with 1 uM H4H10432P2 (col 7); black box
Protocol: as §3

Activin B [26] = molecular target: T12, Activin B; test: SPR, captured mAb, 25C
Protocol: as §4

Activin A [27] = molecular target: T11, Activin A; test: SPR, captured mAb, 25C
Protocol: as §4

Activin A [28] = molecular target: T11, Activin A; test: Octet cross-competition; binder on anti-hFc tip; 50 nM hActivin A mixed with 1 uM Isotype control 13 (-) (col 13); dark grey box
Protocol: as §3

Activin A [29] = molecular target: T11, Activin A; test: Octet cross-competition; binder on anti-hFc tip; 50 nM hActivin A pre-bound with 1 uM H4H10440P2 (col 9); black box
Protocol: as §3

50 nM Ag Bound (RU) (Activin AB [1]): 28.2 RU
Kd (Activin AB [1]): 0.0341 nM
koff (Activin AB [1]): 0.000261 s⁻¹
kon (Activin AB [1]): 7.66e+06 M⁻¹ s⁻¹
t1/2 (Activin AB [1]): 44.2 min
binding response (resonance units) for 200 nM ligand (hBMP4): 19.3 RU
binding response (resonance units) for 200 nM ligand (hBMP9): 11.7 RU
binding response (resonance units) for 200 nM ligand (hBMP6): 4 RU
binding response (resonance units) for 200 nM ligand (hBMP2): 14.9 RU
binding response (resonance units) for 200 nM ligand (Activin AC [2]): 55.6 RU
binding response (resonance units) for 200 nM ligand (Activin AB [3]): 54.3 RU
binding response (resonance units) for 200 nM ligand (GDF8): -0.5 RU
binding response (resonance units) for 200 nM ligand (Activin B [4]): 60.1 RU
binding response (resonance units) for 200 nM ligand (GDF11): 0 RU
binding response (resonance units) for 200 nM ligand (Activin A [5]): 56.5 RU
IC50 [M], inhibition of 4 nM Activin AC in A204/CAGAx12-Luc Smad2/3-luciferase bioassay (Activin AC [6]): 1.3e-09 M
IC50 [M], inhibition of 30 pM Activin AB in A204/CAGAx12-Luc Smad2/3-luciferase bioassay (Activin AB [7]): 1.4e-10 M
IC50 [M], inhibition of 50 pM Activin B in A204/CAGAx12-Luc Smad2/3-luciferase bioassay (Activin B [8]): 1.3e-10 M
IC50 [M], inhibition of 100 pM Activin A in A204/CAGAx12-Luc Smad2/3-luciferase bioassay (Activin A [9]): 2e-10 M
50 nM Ag Bound (RU) (Activin AC [10]): 30.1 RU
Kd (Activin AC [10]): 2.24 nM
koff (Activin AC [10]): 0.00156 s⁻¹
kon (Activin AC [10]): 698000 M⁻¹ s⁻¹
t1/2 (Activin AC [10]): 7.4 min
50 nM Ag Bound (RU) (Activin AB [11]): 33.9 RU
Kd (Activin AB [11]): 0.0443 nM
koff (Activin AB [11]): 0.000458 s⁻¹
kon (Activin AB [11]): 1.03e+07 M⁻¹ s⁻¹
t1/2 (Activin AB [11]): 25.2 min
50 nM Ag Bound (RU) (Activin AC [12]): 32.6 RU
Kd (Activin AC [12]): 3.75 nM
koff (Activin AC [12]): 0.00331 s⁻¹
kon (Activin AC [12]): 881000 M⁻¹ s⁻¹
t1/2 (Activin AC [12]): 3.5 min
B1: H4H10436P2 (antibody, human IgG4, V domains shown)
VH: QVQLVESGGGVVQPGRSLRLTCVASGFTVSSYGMHWVRQAPGKGLEWVAVMFYDESKKYYADSVKGRFTISRDNSKNTLYLQMNSLRVEDTAVYYCARDEQLDFEYWGQGTLVTVSS
VL: not shown

binding response (Activin A [13]): 0.36
binding response (Activin A [14]): 1.32
binding response (Activin A [15]): -0.04
koff (Activin A [16]): ≤ 5e-05 s⁻¹
binding response (Activin A [17]): 1.22
binding response (Activin A [18]): 0.16
binding response (Activin A [19]): 1.41
binding response (Activin A [20]): 0.28
binding response (Activin A [21]): 1.39
50 nM Ag Bound (RU) (Activin B [22]): 38.1 RU
Kd (Activin B [22]): 0.139 nM
koff (Activin B [22]): 0.00136 s⁻¹
kon (Activin B [22]): 9.78e+06 M⁻¹ s⁻¹
t1/2 (Activin B [22]): 8.5 min
Activin A-20 nM (RU) (Activin A [23]): 29.4 RU
Kd (Activin A [23]): ≤ 0.00335 nM
kon (Activin A [23]): 1.49e+07 M⁻¹ s⁻¹
t1/2 (Activin A [23]): ≥ 231 min
binding response (Activin A [24]): 0.28
binding response (Activin A [25]): 0.23
50 nM Ag Bound (RU) (Activin B [26]): 32.8 RU
Kd (Activin B [26]): 0.0554 nM
koff (Activin B [26]): 0.000528 s⁻¹
kon (Activin B [26]): 9.52e+06 M⁻¹ s⁻¹
t1/2 (Activin B [26]): 21.9 min
Activin A-20 nM (RU) (Activin A [27]): 23.2 RU
Kd (Activin A [27]): 0.019 nM
koff (Activin A [27]): 0.000168 s⁻¹
kon (Activin A [27]): 8.85e+06 M⁻¹ s⁻¹
t1/2 (Activin A [27]): 68.7 min
binding response (Activin A [28]): 0.14
binding response (Activin A [29]): 0.27
B2: H4H10436P2 (antibody, human IgG4, V domains shown)
VH: B1 VH
VL: not shown
